B1: R268A/R411A: T. reesei CBH I (SEQ ID NO:2) with R268A and R411A substitutions (protein, listed as Trichoderma reesei)
chain: MYRKLAVISAFLATARAQSACTLQSETHPPLTWQKCSSGGTCTQQTGSVVIDANWRWTHATNSSTNCYDGNTWSSTLCPDNETCAKNCCLDGAAYASTYGVTTSGNSLSIGFVTQSAQKNVGARLYLMASDTTYQEFTLLGNEFSFDVDVSQLPCGLNGALYFVSMDADGGVSKYPTNTAGAKYGTGYCDSQCPRDLKFINGQANVEGWEPSSNNANTGIGGHGSCCSEMDIWEANSISEALTPHPCTTVGQEICEGDGCGGTYSDNAYGGTCDPDGCDWNPYRLGNTSFYGPGSSFTLDTTKKLTVVTQFETSGAINRYYVQNGVTFQQPNAELGSYSGNELNDDYCTAEEAEFGGSSFSDKGGLTQFKKATSGGMVLVMSLWDDYYANMLWLDSTYPTNETSSTPGAVAGSCSTSSGVPAQVESQSPNAKVTFSNIKFGPIGSTGNPSGGNPPGGNPPGTTTTRRPATTTGSSPGPTQSHYGQCGGIGYSGPTVCASGTTCQVLNPYYSQCL
B2: R268K/R411K: T. reesei CBH I (SEQ ID NO:2) with R268K and R411K substitutions (protein, listed as Trichoderma reesei)
chain: MYRKLAVISAFLATARAQSACTLQSETHPPLTWQKCSSGGTCTQQTGSVVIDANWRWTHATNSSTNCYDGNTWSSTLCPDNETCAKNCCLDGAAYASTYGVTTSGNSLSIGFVTQSAQKNVGARLYLMASDTTYQEFTLLGNEFSFDVDVSQLPCGLNGALYFVSMDADGGVSKYPTNTAGAKYGTGYCDSQCPRDLKFINGQANVEGWEPSSNNANTGIGGHGSCCSEMDIWEANSISEALTPHPCTTVGQEICEGDGCGGTYSDNKYGGTCDPDGCDWNPYRLGNTSFYGPGSSFTLDTTKKLTVVTQFETSGAINRYYVQNGVTFQQPNAELGSYSGNELNDDYCTAEEAEFGGSSFSDKGGLTQFKKATSGGMVLVMSLWDDYYANMLWLDSTYPTNETSSTPGAVKGSCSTSSGVPAQVESQSPNAKVTFSNIKFGPIGSTGNPSGGNPPGGNPPGTTTTRRPATTTGSSPGPTQSHYGQCGGIGYSGPTVCASGTTCQVLNPYYSQCL
B3: R268K: T. reesei CBH I (SEQ ID NO:2) with R268K substitution (protein, listed as Trichoderma reesei)
chain: MYRKLAVISAFLATARAQSACTLQSETHPPLTWQKCSSGGTCTQQTGSVVIDANWRWTHATNSSTNCYDGNTWSSTLCPDNETCAKNCCLDGAAYASTYGVTTSGNSLSIGFVTQSAQKNVGARLYLMASDTTYQEFTLLGNEFSFDVDVSQLPCGLNGALYFVSMDADGGVSKYPTNTAGAKYGTGYCDSQCPRDLKFINGQANVEGWEPSSNNANTGIGGHGSCCSEMDIWEANSISEALTPHPCTTVGQEICEGDGCGGTYSDNKYGGTCDPDGCDWNPYRLGNTSFYGPGSSFTLDTTKKLTVVTQFETSGAINRYYVQNGVTFQQPNAELGSYSGNELNDDYCTAEEAEFGGSSFSDKGGLTQFKKATSGGMVLVMSLWDDYYANMLWLDSTYPTNETSSTPGAVRGSCSTSSGVPAQVESQSPNAKVTFSNIKFGPIGSTGNPSGGNPPGGNPPGTTTTRRPATTTGSSPGPTQSHYGQCGGIGYSGPTVCASGTTCQVLNPYYSQCL
B4: R411K: T. reesei CBH I (SEQ ID NO:2) with R411K substitution (protein, listed as Trichoderma reesei)
chain: MYRKLAVISAFLATARAQSACTLQSETHPPLTWQKCSSGGTCTQQTGSVVIDANWRWTHATNSSTNCYDGNTWSSTLCPDNETCAKNCCLDGAAYASTYGVTTSGNSLSIGFVTQSAQKNVGARLYLMASDTTYQEFTLLGNEFSFDVDVSQLPCGLNGALYFVSMDADGGVSKYPTNTAGAKYGTGYCDSQCPRDLKFINGQANVEGWEPSSNNANTGIGGHGSCCSEMDIWEANSISEALTPHPCTTVGQEICEGDGCGGTYSDNRYGGTCDPDGCDWNPYRLGNTSFYGPGSSFTLDTTKKLTVVTQFETSGAINRYYVQNGVTFQQPNAELGSYSGNELNDDYCTAEEAEFGGSSFSDKGGLTQFKKATSGGMVLVMSLWDDYYANMLWLDSTYPTNETSSTPGAVKGSCSTSSGVPAQVESQSPNAKVTFSNIKFGPIGSTGNPSGGNPPGGNPPGTTTTRRPATTTGSSPGPTQSHYGQCGGIGYSGPTVCASGTTCQVLNPYYSQCL
B5: R268A/R411K: T. reesei CBH I (SEQ ID NO:2) with R268A and R411K substitutions (protein, listed as Trichoderma reesei)
chain: MYRKLAVISAFLATARAQSACTLQSETHPPLTWQKCSSGGTCTQQTGSVVIDANWRWTHATNSSTNCYDGNTWSSTLCPDNETCAKNCCLDGAAYASTYGVTTSGNSLSIGFVTQSAQKNVGARLYLMASDTTYQEFTLLGNEFSFDVDVSQLPCGLNGALYFVSMDADGGVSKYPTNTAGAKYGTGYCDSQCPRDLKFINGQANVEGWEPSSNNANTGIGGHGSCCSEMDIWEANSISEALTPHPCTTVGQEICEGDGCGGTYSDNAYGGTCDPDGCDWNPYRLGNTSFYGPGSSFTLDTTKKLTVVTQFETSGAINRYYVQNGVTFQQPNAELGSYSGNELNDDYCTAEEAEFGGSSFSDKGGLTQFKKATSGGMVLVMSLWDDYYANMLWLDSTYPTNETSSTPGAVKGSCSTSSGVPAQVESQSPNAKVTFSNIKFGPIGSTGNPSGGNPPGGNPPGTTTTRRPATTTGSSPGPTQSHYGQCGGIGYSGPTVCASGTTCQVLNPYYSQCL
B6: R268K/R411A: T. reesei CBH I (SEQ ID NO:2) with R268K and R411A substitutions (protein, listed as Trichoderma reesei)
chain: MYRKLAVISAFLATARAQSACTLQSETHPPLTWQKCSSGGTCTQQTGSVVIDANWRWTHATNSSTNCYDGNTWSSTLCPDNETCAKNCCLDGAAYASTYGVTTSGNSLSIGFVTQSAQKNVGARLYLMASDTTYQEFTLLGNEFSFDVDVSQLPCGLNGALYFVSMDADGGVSKYPTNTAGAKYGTGYCDSQCPRDLKFINGQANVEGWEPSSNNANTGIGGHGSCCSEMDIWEANSISEALTPHPCTTVGQEICEGDGCGGTYSDNKYGGTCDPDGCDWNPYRLGNTSFYGPGSSFTLDTTKKLTVVTQFETSGAINRYYVQNGVTFQQPNAELGSYSGNELNDDYCTAEEAEFGGSSFSDKGGLTQFKKATSGGMVLVMSLWDDYYANMLWLDSTYPTNETSSTPGAVAGSCSTSSGVPAQVESQSPNAKVTFSNIKFGPIGSTGNPSGGNPPGGNPPGTTTTRRPATTTGSSPGPTQSHYGQCGGIGYSGPTVCASGTTCQVLNPYYSQCL
B7: R411A: T. reesei CBH I (SEQ ID NO:2) with R411A substitution (protein, listed as Trichoderma reesei)
chain: MYRKLAVISAFLATARAQSACTLQSETHPPLTWQKCSSGGTCTQQTGSVVIDANWRWTHATNSSTNCYDGNTWSSTLCPDNETCAKNCCLDGAAYASTYGVTTSGNSLSIGFVTQSAQKNVGARLYLMASDTTYQEFTLLGNEFSFDVDVSQLPCGLNGALYFVSMDADGGVSKYPTNTAGAKYGTGYCDSQCPRDLKFINGQANVEGWEPSSNNANTGIGGHGSCCSEMDIWEANSISEALTPHPCTTVGQEICEGDGCGGTYSDNRYGGTCDPDGCDWNPYRLGNTSFYGPGSSFTLDTTKKLTVVTQFETSGAINRYYVQNGVTFQQPNAELGSYSGNELNDDYCTAEEAEFGGSSFSDKGGLTQFKKATSGGMVLVMSLWDDYYANMLWLDSTYPTNETSSTPGAVAGSCSTSSGVPAQVESQSPNAKVTFSNIKFGPIGSTGNPSGGNPPGGNPPGTTTTRRPATTTGSSPGPTQSHYGQCGGIGYSGPTVCASGTTCQVLNPYYSQCL
B8: R268A: T. reesei CBH I (SEQ ID NO:2) with R268A substitution (protein, listed as Trichoderma reesei)
chain: MYRKLAVISAFLATARAQSACTLQSETHPPLTWQKCSSGGTCTQQTGSVVIDANWRWTHATNSSTNCYDGNTWSSTLCPDNETCAKNCCLDGAAYASTYGVTTSGNSLSIGFVTQSAQKNVGARLYLMASDTTYQEFTLLGNEFSFDVDVSQLPCGLNGALYFVSMDADGGVSKYPTNTAGAKYGTGYCDSQCPRDLKFINGQANVEGWEPSSNNANTGIGGHGSCCSEMDIWEANSISEALTPHPCTTVGQEICEGDGCGGTYSDNAYGGTCDPDGCDWNPYRLGNTSFYGPGSSFTLDTTKKLTVVTQFETSGAINRYYVQNGVTFQQPNAELGSYSGNELNDDYCTAEEAEFGGSSFSDKGGLTQFKKATSGGMVLVMSLWDDYYANMLWLDSTYPTNETSSTPGAVRGSCSTSSGVPAQVESQSPNAKVTFSNIKFGPIGSTGNPSGGNPPGGNPPGTTTTRRPATTTGSSPGPTQSHYGQCGGIGYSGPTVCASGTTCQVLNPYYSQCL

Assay: Bagasse assay in the absence and presence of β-glucosidase (BG)
Format: biochemical
Conditions: variants of T. reesei CBH I; [(Activity without BG)/(Activity with BG)]*100; conversion of glucan after 72 hours
Protocol: Bagasse Assay: This assay measures the activity of CBH I on bagasse, a lignocellulosic substrate. Reactions were run in 10 ml vials with 5% dilute acid pretreated bagasse (250 mg solids per 5 ml reaction). Each reaction contained 4 mg CBH I enzyme/g solids, 200 mM MES pH 6, kanamycin, and chloramphenicol. Reactions were incubated at 35° C. in hybridization incubators (Robbins Scientific), rotating at 20 RPM. Time points were taken by transferring a sample of homogenous slurry (150 μl) into a 96-well deep well plate and quenching the reaction with stop buffer (450 μl of 500 mM sodium carbonate, pH 10). Time point measurements were taken every 24 hours for 72 hours.
Cellobiose Tolerance Assays (or Cellobiose Inhibition Assays): Tolerance to cellobiose (or inhibition caused by cellobiose) was tested in two ways in the CBH I assays. A direct-dose tolerance method can be applied to all of the CBH I assays (i.e., 4-MUL, PASC, and/or bagasse assays), and entails the exogenous addition of a known amount of cellobiose into assay mixtures. A different indirect method entails the addition of an excess amount of β-glucosidase (BG) to PASC and bagasse assays (typically, 1 mg β-glucosidase/g solids loaded). BG will enzymatically hydrolyze the cellobiose generated during these assays; therefore, CBH I activity in the presence of BG can be taken as a measure of activity in the absence of cellobiose. Furthermore, when activity in the presence and absence of BG are similar, this indicates tolerance to cellobiose. […]
FIGS. 4 and 5 show bar graph data for the bagasse assay of wild type T. reesei CBH I vs. the variants. In FIG. 4, bars represent relative activity, normalized to wild type activity in the absence of cellobiose (WT+BG=1). In FIG. 5, bars represent tolerance to cellobiose, as represented by the ratio of activity in the presence of accumulating cellobiose (−BG) to that of activity in the absence of cellobiose (+BG); ratios close to 1 indicate greater tolerance to cellobiose.

Molecule | Tolerance to cellobiose accumulation % Activity in Bagasse Assay (−/+BG) [%]
B1 | 95
B2 | 94
B3 | 92
B4 | 89
B5 | 94
B6 | 102
B7 | 94
B8 | 86
